Assay [1] addresses chemokine receptors on THP-1 cells. The experiment in a line: binding to chemokine receptors on THP-1 cells; given as association constant.
Another assay addresses CCR5 (human) (UniProt P51681). The experiment in a line: 12-point Scatchard analysis, 0.03 nM 125I-RANTES on HOS CCR5 cells and parental line, 4°C, 2 hours.
Assay [2] deals with T1, Duffy Antigen Receptor for Chemokines (DARC) (human) (UniProt Q16570).
T1 sequence (looked up): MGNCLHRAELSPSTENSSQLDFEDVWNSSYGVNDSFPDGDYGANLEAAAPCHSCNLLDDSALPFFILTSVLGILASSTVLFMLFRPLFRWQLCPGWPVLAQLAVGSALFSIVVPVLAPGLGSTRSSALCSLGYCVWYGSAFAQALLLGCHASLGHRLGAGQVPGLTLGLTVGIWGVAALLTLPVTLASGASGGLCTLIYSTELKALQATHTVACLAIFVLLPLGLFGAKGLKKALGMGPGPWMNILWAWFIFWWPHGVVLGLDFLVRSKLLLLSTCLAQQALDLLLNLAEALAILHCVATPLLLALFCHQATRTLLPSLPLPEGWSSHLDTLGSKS
The assay can be described thus: footnote c of Table 6; given as affinity constant.

Assay [3] deals with chemokine receptors on THP-1 cells. The assay can be described thus: 100 µM biotinylated peptide on THP-1 cells, alone minus excess unlabeled peptide.
In assay [4] the target is chemokine receptors on the surface of Jurkat cells. The assay can be described thus: 100 µM biotinylated peptide on Jurkat cells, alone minus excess unlabeled peptide.
The target of assay [5] is chemokine receptors on THP-1 cells. The assay can be described thus: 100 µM biotinylated peptide on THP-1 cells with 100-fold excess of the same unlabeled peptide.
Assay [6] addresses chemokine receptors on the surface of Jurkat cells. The assay can be described thus: 100 µM biotinylated peptide on Jurkat cells with 100-fold excess of the same unlabeled peptide.
Assay [7] shares this target. The experiment in a line: 100 µM biotinylated peptide on Jurkat cells (10^6 per reaction), 4°C, streptavidin-peroxidase/TMB.
The target in assay [8] is chemokine receptors on THP-1 cells. The assay can be described thus: 100 µM biotinylated peptide on THP-1 cells (4 x 10^5 per reaction), 4°C, streptavidin-peroxidase/TMB.
Assay [9] concerns the target chemokine receptors on the surface of Jurkat cells. The assay can be described thus: biotinylated peptide on cells, streptavidin-peroxidase.

Values joined by “and” are separate entries in the source; they are usually repeats but may differ in a detail not shown here. Identical values can stand only once. Where only a bound is given, the exact number is not on record here.

Sequence of CCR5 (human) (P51681 whole entry): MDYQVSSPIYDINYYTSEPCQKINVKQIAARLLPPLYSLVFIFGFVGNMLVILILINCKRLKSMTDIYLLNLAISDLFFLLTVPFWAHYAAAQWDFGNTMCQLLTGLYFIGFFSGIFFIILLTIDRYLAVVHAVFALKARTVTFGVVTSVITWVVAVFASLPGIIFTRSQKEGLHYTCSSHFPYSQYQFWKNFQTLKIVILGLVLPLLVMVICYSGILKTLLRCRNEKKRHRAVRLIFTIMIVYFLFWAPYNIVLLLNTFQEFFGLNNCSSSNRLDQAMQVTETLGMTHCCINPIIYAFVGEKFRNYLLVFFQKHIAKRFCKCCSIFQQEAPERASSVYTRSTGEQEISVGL

By Kd is commonly meant the free concentration of one partner at which half of the binding sites on the other are occupied at equilibrium, for simple one-to-one binding. With KQK (peptide), in assay [1], the Kd is 0.5 µM and 1 µM.
On to “RANTES (from UniProt P13236 24-92) (ligand)”, for which the Kd in the assay with CCR5 (human) was 0.001 µM.
In the case of WVQ (peptide), the Kd in [2] is 2 µM.
On to gp120:V3(BaL) (peptide), for which the values for the ΔA450nm, specific binding in assay [3] and in assay [4] were 0.535 A450 and < 0 A450, respectively. The results for the ΔA450nm, +100-fold excess unlabeled peptide in assay [5] and in assay [6] were 0.107 A450 and 0.168 A450, respectively. In addition, the ΔA450nm, alone in [7] came out at 0.167 A450; in assay [8] it was 0.642 A450.
In [9], gp120:V3(IIIb) (peptide) gave a fold specific binding to Jurkat cells against THP-1 cells of 5 fold. Besides, the ΔA450nm, specific binding in [3] was determined as 0.137 A450; in [4], 0.689 A450. The ΔA450nm, +100-fold excess unlabeled peptide worked out at 0.131 A450 in assay [5] and 0.189 A450 in assay [6]. Further, the results for the ΔA450nm, alone in [7] and in assay [8] were 0.878 A450 and 0.268 A450, respectively.

Source of the values: patent EP2386565A2, “Compounds and methods to inhibit or augment an inflammatory response” (Cambridge Enterprise Ltd., priority 1999, dated 2000).
